Results: the nanobody polyreactivity screen of Harvey et al. (2022)

Assay: yeast display, Sf9 membrane polyspecificity reagent, FACS + sequencing; frameworks hold sequencing errors
Summary of the method: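 Synthetic nanobody libraries on Saccharomyces cerevisiae BJ5465 were galactose-induced for 36–48 hours, stained 1 hour at 4 °C with 10% biotinylated, detergent-solubilized Sf9 membrane reagent and enriched on streptavidin microbeads. FACS then separated cells into low and high (top ~1%) gates by anti-HA (expression) and streptavidin (reagent binding) fluorescence. Genes were colony-PCR amplified, MiSeq 2 × 250 sequenced and CDR-length filtered. A clone's polyreactivity label is that of its gate of origin.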

Row | Sequence | polyreactivity (PSR sort gate)
1 | QVQLVESGGGLVQAGGSLRLSCAASGNILTTYAMGWYRQAPGKERELVAAIRWSDGSTYYADSVKGRFTISRDNAKNTVYLQMNSLKPEDTAVYYCAADYHYPTWQGGYHYGYWGQGTQVTVSS | high polyreactivity
2 | QVQLVESGGGLVQAGGSLRISSAASGSTFSRYAMGWYRQAPGKERELVAAISWRGGRTYYADSVKGRFTISRDNAKNTVYLQMNSLKPEDTAVYYCNAVSSFTSPRYDYWGQGTQVTVSS | high polyreactivity
3 | QVQLVESGGGLVQAGGSLRLSCAPSGRIFRKYAMGWYRQAPGKERELVAAINSRGGRTYYADSVKGRFTISRDNAKKTVYLQMNSLKPEDTAVYYCAASVGWGMDYWGQGTQVTVSS | high polyreactivity
4 | QVQLVESGGGLVQAGGSLRLSSAASGRTFRPNAMGGYRQAPGKERELVAGITRGGSTKYADSVKGRFTISRDNSKNTVYLQMNSLKPEDTAVYYCAVERGSYSYDRPFYYCGQGTQVTVSS | high polyreactivity
5 | QVQLVESGGGLVQAGGSLRLSCAASGRIFGLYSRGSYRQAPGKERELVAAISSRGGSTYYADSVKGRFTISRDNAKNTVYLQMNSLKPEDTAVYYCARETSYFGPSDYDYWGQGTQVTVSS | high polyreactivity
6 | QVQLVESGGGLVQAGGSLRLSCAASGFTFTVYAMGWYRQAPGQERELVATISRSAGRTYYADSVKGRFTISRDNAKNTVYLQMNSLKPEDTPVYYCNAAYGNGYTGGFDNWGQGTQVTVSS | high polyreactivity
7 | QVQLVESGGGLVQAGGSLRLSCAASGLILPYYTMGWYRQAPGTERELVAAITWGGDSTYYADSVKGRFTISRDNAKNTVYLQMNRLKPEDTAVFYCAAYPQRRFYWQYRYDYWGQGTQVTGSS | high polyreactivity
8 | QVQLVESGGGLVQAGGSLRLSCAASGRIFGYYAMGWYRQAPGKERELVARISSSGGSTYYADSVKGRFTISRDNAKNTVYLQMNSLKPEDTAVYYCNTASNRYPGWRAEFDYWGQGTQVTVSS | low polyreactivity
9 | QVQLVESGGGLVQAGGSLRLSCAASGRTFGGYALGWYRQAPGKARELVAAITWSDTSTYYADSVKGRFRFSRDNAKNTVYLQMNSLKPEDTAVYYCAAEQWYWWDDYWGKGTQVTVSS | high polyreactivity
10 | QVQLVESGGGLVQAGGSLRLSCAASGRIFGRYAMGWYRQAPGKERELVAAITGRGASTYYADSVKGRFTISRDNAKNTVYLQMNSLKPEDTAVYYCNAFRGAQGTDAYDWGQGTQVTVSS | low polyreactivity
11 | QVQLVESGGGLVQAGGSLRLSCAASGFTFHYYDMGWYRQAPGKERELVATISQSGTSTYYADSVKGRFTISRDNAKNSVYLQMHSLKPEDTAVYYCAADYIGYWYGYYWYEYWGQGTQVTVSS | low polyreactivity
12 | QVQIVESGGGLVQAGGSLRLSCAASGRTFRVNAMGWYRQAPGKERELVAAISSSGGSTYYADSVKGRFTISRDNAKNTVYLQMNSLKPEDTAVYYCAAVVGGYRYDYLGQGTQVTVSS | high polyreactivity
13 | QVHLVESGGGLLQAGGSLRLSCAASGSIFAYNAMGWYREAPRKERELVASITNGGSTYYADSVKGRFTISRYNAKNSVYLQMKSLKPEDTAVYYCNTDFDGYSVGYDGYWGQGTQVTVSA | low polyreactivity
14 | QVQLVESGGGLVQAGGSLRLSCAASGFTFLYYDMGWYRQAPGKERELVAAITNDDSTYYADSVKGRFTISRDNAKNTVYLQMNSLKPEDTAVYYCNADVWYYTPYDYWGQVTQVTVSS | high polyreactivity
15 | QVQLVDSGGGLVQAGGSLRLSCAASGSIFYRNAMGWSRQAPGKERELVAAITRGGSTYYADSVKGRFTISRDNAKNTVYLQMNSLKPEDTAVYYCNAYGGFAYSYDYWGQGTQVTVSS | high polyreactivity
16 | QVQLVESGGVLGQAGGSLRLSCAPSGSLIGGYAMGWYRQAPGKQRELVAAISYRGATTYYADSVKGRFTISRDNSKNTVYFQMNSLKPEDTAVYYCDVAARTRARVLYGYDYGGQGTQVTVSS | low polyreactivity

Row | Sequence | polyreactivity (PSR sort gate)
17 | QVQLVESGGGLVQAGGSLRLSCAASGRIFTTNAMGWYRQAPGKERELVAAITYSGGTTYYADSVKGRFTISRDNAKNTVYLQLNSLNPEDTAVYYCAADVKFSTPYDYWGQGSQVTVSS | low polyreactivity
18 | QVQLVESGGGLVQAAGSLRLSCAASGRTFYRNAMGWYRQAPGKERELVAAISQSGGSTYYADSVKGRFTISRDNAKNTVYLQMNSLKPEDTAVYYWAAGNSRRVGMDYWGQGTQVTVSS | high polyreactivity
19 | QVQLVESGGGLVQAGGSLRLSCAASGSTFDGYAMGWYRQAPGKERELVAAISRSGGRTYNADSVKGRFTISRDYAKNTVYLQMNSLKPEDTAVYYCAAYKPRPQYTDDDYWGQGTQVTVSS | high polyreactivity
20 | QVQLVESGGGLVQAGGSLRLSCAASGSIFYKNAMGWYRQAPGKERELVAAITYSGGSTYYADSVKGRFTISRDNAKNTVYLQMNSLKPEDTAVYYCAADIGVYGERREEEYDYWGQGTQVTVSS | low polyreactivity
21 | QVQLVESGGGLVQAGGSLRLSCAASGRTLTYNVMGWYRQAPGKERELVASISSSGSSTHYADSVKGRFTISRDNAKNTVYLQMNSLKPEDTAVYYCAVEFWRPFWTRFDYWGQGTQVTVSS | high polyreactivity
22 | QVQLVEKGGGLVQAGGSLRLSCAASGYIFRFYTKRWYRQAPGKERELVASITRSGGSTYYADSVKGRFTFSRENAKNTVYLQKNSLKPEDTAVYYCNARKTVGMDYWGQGTQVTVSS | low polyreactivity
23 | QVQLVESGGGLVQAGGSLRLSCAASGSIFRVNAMGWYRQAPGKERELVAAISRRGGRRYYADSVKGRFTISRDNAKNTVYLQMNSLKPEDTAVYYCAAGVSVSASPYNGFDYWGQGTQVTVSS | high polyreactivity
24 | QVQLVESGGCLVQAGGTLRLSCAASGFTFGNNGMGWYRQAPGKERELVATISWSGGSTDADSVKGRFTISRDNAKNTVYLQMNSLKPEDTAVSYCAARPRWYFFSYGRQDDGSWGQGTQVTVSS | low polyreactivity
25 | QVQLVESGGGLVQAGGSLRLSCAASGFIFGGYALGWYRQAPGKERELVAAISWSGDNTYYADSVKGRFTISRDNAKNTVYLQMNSLKPEDTAVYYCAADSYGQEYDYWGQGTQVTVSS | low polyreactivity
26 | QVQLVESGGGLVQAGGSLRLSCAASGNIFDTYVMGWYRPAPGTERELVAAISSAGSTNYADSVKGRFTISRDNAKNTVYLQMNSLKPEDTAVYYCNADYWYYGYDYWGQGTQVTVSS | low polyreactivity
27 | QVQLEESGGGLVQAGGSLRLTGAASGSTVVSYAMGWYRQERGKEWELVAAISSSSGRTRYADSVKGSFTISRDNAKNTVYLQMNSLKPEDTAVYYCAARRQSTRPGFYYWGQGTQVTVSS | high polyreactivity
28 | QVQLVESGGGLVQAGGSLRLSCAASGFTLYPYAMGWYRPAPGKERELVAAISGSGGSTYYADSVKGRFTISRDNAKNTVYLQMNSLKPEDTAVYYCAARGPQQWWWDDDYWGQGTQVTVSS | high polyreactivity
29 | QDQLVESGGGVVQAGGSLRLSCAASGRISIWYAMGWYRQAPGKERELVARISTSSGRTYYADSVKGRFTISRDNAKNTVYLQMNSLKPEDTAVYYCNAAGYRIYFSTRYDYWGQGTQVTVSS | high polyreactivity
30 | QVQLVESGGGLVQAGGSLRLSCAASGRIFSFYAMGWYRQAPGKERELVAAITYTDGSTYADSVKGRFTISRDNAKNTVYLQMNSLKPEDTAVYYCATRYRWTPYDYWGQGTQVTVSS | low polyreactivity
31 | QVQLVESGGGLVQAGGSLRLSCAASGITFVYYAMGWYRQAPGKERELVASISSADNTHYADSVKGRFTISRDNAKNTVYLQMNSQKPEDTAVYYCAADYWWNLRHYSTGGYWGQGTQVTVSS | low polyreactivity
32 | QVHLVESGGGLDQAGASLRITSAATGFTFRQNVKRWYRQAPGKESEFVATITWSGGRTSYADSVKGRFTISRDNAKNTVYLQMNSLKPEDTAVYYCAARFFSYSQYAYNYWGQGTQVTVSS | high polyreactivity
